Test results: publication PMC7022988, “General and Genomic DNA-Binding Specificity for the Thermus thermophilus HB8 Transcription Factor TTHB023”

T1: TTHB023 (PfmR) (Thermus thermophilus HB8) (UniProt Q53WD9)
T1 sequence: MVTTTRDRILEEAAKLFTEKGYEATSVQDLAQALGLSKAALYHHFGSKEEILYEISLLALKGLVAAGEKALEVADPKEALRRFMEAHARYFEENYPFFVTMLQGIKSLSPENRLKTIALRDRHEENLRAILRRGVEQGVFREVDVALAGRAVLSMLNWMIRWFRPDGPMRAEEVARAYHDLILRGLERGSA

T2: TTHB023 (PfmR) (Thermus thermophilus HB8, UniProt Q53WD9 1-191)
T2 sequence: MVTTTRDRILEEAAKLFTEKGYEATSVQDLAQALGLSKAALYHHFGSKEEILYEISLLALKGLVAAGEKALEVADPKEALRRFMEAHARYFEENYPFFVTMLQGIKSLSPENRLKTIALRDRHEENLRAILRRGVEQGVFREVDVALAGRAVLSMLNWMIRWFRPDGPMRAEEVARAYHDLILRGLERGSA

B1: REPSAis control (dsDNA)
DNA 1: CTAGGAATTCGTGCAGAGGTGAATCGTCATAGAATTCGTTACCATCCCTCCAGAAGCTTGGACA
DNA 2: TGTCCAAGCTTCTGGAGGGATGGTAACGAATTCTATGACGATTCACCTCTGCACGAATTCCTAG
B2: m1 (dsDNA)
DNA 1: CTAGGAATTCGTGCAGAGGTGAATGTGACCGATCGGTCAGTTACCATCCCTCCAGAAGCTTGGACA
DNA 2: TGTCCAAGCTTCTGGAGGGATGGTAACTGACCGATCGGTCACATTCACCTCTGCACGAATTCCTAG
B3: m6 (dsDNA)
DNA 1: CTAGGAATTCGTGCAGAGGTGAATCTGACGGATCGGTCAGTTACCATCCCTCCAGAAGCTTGGACA
DNA 2: TGTCCAAGCTTCTGGAGGGATGGTAACTGACCGATCCGTCAGATTCACCTCTGCACGAATTCCTAG
B4: m2 (dsDNA)
DNA 1: CTAGGAATTCGTGCAGAGGTGAATCGGACCGATCGGTCAGTTACCATCCCTCCAGAAGCTTGGACA
DNA 2: TGTCCAAGCTTCTGGAGGGATGGTAACTGACCGATCGGTCCGATTCACCTCTGCACGAATTCCTAG
B5: m4 (dsDNA)
DNA 1: CTAGGAATTCGTGCAGAGGTGAATCTGCCCGATCGGTCAGTTACCATCCCTCCAGAAGCTTGGACA
DNA 2: TGTCCAAGCTTCTGGAGGGATGGTAACTGACCGATCGGGCAGATTCACCTCTGCACGAATTCCTAG
B6: m3 (dsDNA)
DNA 1: CTAGGAATTCGTGCAGAGGTGAATCTCACCGATCGGTCAGTTACCATCCCTCCAGAAGCTTGGACA
DNA 2: TGTCCAAGCTTCTGGAGGGATGGTAACTGACCGATCGGTGAGATTCACCTCTGCACGAATTCCTAG
B7: m8 (dsDNA)
DNA 1: CTAGGAATTCGTGCAGAGGTGAATCTGACCGCTCGGTCAGTTACCATCCCTCCAGAAGCTTGGACA
DNA 2: TGTCCAAGCTTCTGGAGGGATGGTAACTGACCGAGCGGTCAGATTCACCTCTGCACGAATTCCTAG
B8: m7 (dsDNA)
DNA 1: CTAGGAATTCGTGCAGAGGTGAATCTGACCCATCGGTCAGTTACCATCCCTCCAGAAGCTTGGACA
DNA 2: TGTCCAAGCTTCTGGAGGGATGGTAACTGACCGATGGGTCAGATTCACCTCTGCACGAATTCCTAG
B9: m5 (dsDNA)
DNA 1: CTAGGAATTCGTGCAGAGGTGAATCTGATCGATCGGTCAGTTACCATCCCTCCAGAAGCTTGGACA
DNA 2: TGTCCAAGCTTCTGGAGGGATGGTAACTGACCGATCGATCAGATTCACCTCTGCACGAATTCCTAG

Experiments:
[1] = molecular target: T1, TTHB023 (PfmR) (Thermus thermophilus HB8); assay: BLI; conditions: BLI: 20 mM Tris-Cl pH 7.7, 100 mM NaCl, 1 mM EDTA, 0.05% Tween 20, 1.4 nM biotin-DNA loaded at 37 °C, 3.7-300 nM protein; EMSA: 1x NEB CutSmart buffer, 55 °C …
TTHB023 (PfmR) [2] = molecular target: T2, TTHB023 (PfmR); assay: BLI; slight effect only at 300 nM, nonspecific; Kd extrapolated; BLI: 20 mM Tris-Cl pH 7.7, 100 mM NaCl, 1 mM EDTA, 0.05% Tween 20, 1.4 nM biotin-DNA loaded at 37 °C, 3.7-300 nM protein; EMSA: 1x NEB CutSmart buffer, 55 °C 20 min, 1 ng DNA in 5 µL, 10% native PAGE; conditions: protein: recombinant; chain copies: 2; label: 5' biotin-dT on strand 2; blunt
TTHB023 (PfmR) [3] = molecular target: T2, TTHB023 (PfmR); assay: BLI; printed koff/kon (1.072e-4/2.350e5) does not match printed KD; BLI: 20 mM Tris-Cl pH 7.7, 100 mM NaCl, 1 mM EDTA, 0.05% Tween 20, 1.4 nM biotin-DNA loaded at 37 °C, 3.7-300 nM protein; EMSA: 1x NEB CutSmart buffer, 55 °C 20 min, 1 ng DNA in 5 µL, 10% native PAGE; conditions: protein: recombinant; chain copies: 2; label: 5' biotin-dT on strand 2; blunt
TTHB023 (PfmR) [4] = molecular target: T2, TTHB023 (PfmR); assay: BLI; BLI: 20 mM Tris-Cl pH 7.7, 100 mM NaCl, 1 mM EDTA, 0.05% Tween 20, 1.4 nM biotin-DNA loaded at 37 °C, 3.7-300 nM protein; EMSA: 1x NEB CutSmart buffer, 55 °C 20 min, 1 ng DNA in 5 µL, 10% native PAGE; conditions: protein: recombinant; chain copies: 2; label: 5' biotin-dT on strand 2; blunt

| Molecule | Kd (TTHB023 (PfmR) [4]) [nM] | also measured |
| --- | --- | --- |
| CTAGGAATTCGTGCAGAGGTGAATCTGACCGATCGGTCAGTTACCATCCCTCCAGAAGCTTGGACA (double strand) [ST2_B023_R6_wt consensus (BLI probe)] |  | Kd [1]: 2.1 nM |
| B1 |  | Kd (TTHB023 (PfmR) [2]): 138000 nM |
| B2 |  | Kd (TTHB023 (PfmR) [3]): 4.56 nM |
| B3 | 279 |  |
| B4 | 23 |  |
| B5 | 27.8 |  |
| B6 | 6.62 |  |
| B7 | 59.5 |  |
| B8 | 205 |  |
| B9 | 53.1 |  |
